Results from article PMC4204887.

Legend:
[1] = target: Val122Ile transthyretin (V122I TTR) (human) (UniProt P02766); assay: native gel or EMSA
[2] = target: wild-type transthyretin (WT TTR) (human) (UniProt P02766); assay: native gel or EMSA

| t50 of formation of the 2 FT2/2 TTR heterotetramer [1] [h] | Kex (subunit exchange rate constant) [2] [h⁻¹] | t50 of formation of the 2 FT2/2 TTR heterotetramer [2] [h] | Substance |
| --- | --- | --- | --- |
| 2.84 |  |  | tandem flag-tagged Val122Ile transthyretin (FT2·V122I TTR) (from UniProt P02766 21-147) (natural protein) |
|  | 0.28 | 12.5 | tandem flag-tagged wild-type transthyretin (FT2·WT TTR) (from UniProt P02766 21-147) (natural protein) |
